Results taken from paper PMC3267040, “Structure of a Blinkin-BUBR1 Complex Reveals an Interaction Crucial for Kinetochore-Mitotic Checkpoint Regulation via an Unanticipated Binding Site” (Structure(London, England:1993), 2011).

Legend:
[1] = biological target: T1, BUBR1_(57-220), recombinant protein (human, UniProt O60566 57-220); test: ITC; BUBR1_(57-220) at 27 μM titrated against 200 μM of Blinkin peptide S208-K226; settings: both partners purified
T1 construct: BUBR1, human, residues 57-220 (TPR-containing domain); 15N,13C-labelled for NMR; also called native BUBR1; free BUBR1

[2] = biological target: T1, BUBR1_(57-220), recombinant protein; test: fluorescence-based thermal shift assay; Tm of BUBR1_(57-220) without and with Blinkin S208-K226 peptide; settings: both partners purified

T1 sequence (O60566 57-220): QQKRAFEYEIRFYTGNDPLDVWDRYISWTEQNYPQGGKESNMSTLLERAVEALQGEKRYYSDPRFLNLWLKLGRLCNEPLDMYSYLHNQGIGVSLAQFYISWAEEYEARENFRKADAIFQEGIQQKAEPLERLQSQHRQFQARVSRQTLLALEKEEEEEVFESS

- Kd [1]: 9.3 ± 0.4 µM
- dH [1]: -2.7 kcal/mol
- stoichiometry N [1]: 1
B1: Blinkin S208-K226 peptide (peptide, UniProt Q8NG31-2 208-226, looked up)
peptide: SSENKIDFNDFIKRLKTGK
notes: Blinkin (KNL1, CASC5), human, NCBI NP_653091.2, residues S208-K226; peptide synthesis is in the supplement; also called Blinkin peptide; source: synthetic peptide
- increase of the Tm of BUBR1_(57-220) on addition of the peptide [2]: ~2 °C
